The values that follow come from patent US20250051409A1 (NATIONAL INSTITUTE FOR BIOTECHNOLOGY IN THE NEGEV, published 2025).

Assay [1] addresses T1, ATP synthase subunit 5A, inner mitochondria membrane protein (endogenous) (UniProt P25705 44-553, limits assumed).
T1 construct: also called ATPsyn5a; ATP5a
The assay can be described thus: in situ proximity ligation assay.

The target of assay [2] is T2, citrate synthase (CS), located in the matrix (endogenous) (UniProt O75390 28-466).
T2 sequence (looked up): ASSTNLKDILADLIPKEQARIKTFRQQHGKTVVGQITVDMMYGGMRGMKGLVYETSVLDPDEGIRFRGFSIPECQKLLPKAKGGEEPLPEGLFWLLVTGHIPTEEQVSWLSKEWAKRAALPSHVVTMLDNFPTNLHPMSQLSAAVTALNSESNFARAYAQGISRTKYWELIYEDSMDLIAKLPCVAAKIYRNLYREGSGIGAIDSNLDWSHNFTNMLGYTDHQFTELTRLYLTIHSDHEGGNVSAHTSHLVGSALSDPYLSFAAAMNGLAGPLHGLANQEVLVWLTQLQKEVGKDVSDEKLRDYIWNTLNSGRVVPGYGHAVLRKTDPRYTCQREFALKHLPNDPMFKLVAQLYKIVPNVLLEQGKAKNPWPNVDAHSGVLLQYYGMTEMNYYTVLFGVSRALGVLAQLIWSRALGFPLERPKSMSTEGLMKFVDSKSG
The assay can be described thus: in situ proximity ligation assay.

T1 sequence (P25705 44-553 limits assumed): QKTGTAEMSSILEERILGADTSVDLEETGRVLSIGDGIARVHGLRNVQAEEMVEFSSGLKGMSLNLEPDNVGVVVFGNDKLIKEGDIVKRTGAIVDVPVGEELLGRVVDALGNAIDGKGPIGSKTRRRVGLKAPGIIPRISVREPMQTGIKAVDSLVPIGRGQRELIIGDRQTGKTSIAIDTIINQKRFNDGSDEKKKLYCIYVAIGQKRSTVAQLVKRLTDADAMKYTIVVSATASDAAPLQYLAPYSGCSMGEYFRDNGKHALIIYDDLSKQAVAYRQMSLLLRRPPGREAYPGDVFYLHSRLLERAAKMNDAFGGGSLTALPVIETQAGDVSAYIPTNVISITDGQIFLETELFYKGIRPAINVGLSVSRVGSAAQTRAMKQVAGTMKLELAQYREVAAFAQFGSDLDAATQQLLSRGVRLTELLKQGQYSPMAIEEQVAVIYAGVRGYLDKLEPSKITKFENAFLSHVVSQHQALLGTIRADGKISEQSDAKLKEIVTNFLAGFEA

B1: SMAC/Diablo, endogenous, in A549 cells and A549 xenograft tumor sections (other, human, UniProt Q9NR28 56-239, looked up)
chain: AVPIAQKSEPHSLSSEALMRRAVSLVTDSTSTFLSQTTYALIEAITEYTKAVYTLTSLYRQYTSLLGKMNSEEEDEVWQVIIGARAEMTSKHQEYLKLETTWMTAVGLSEMAAEAAYQTGADQASITARNHIQLVKLQVEEVHQLSRKAETKLAEAQIEELRQKTQEEGEERAESEQEAYLRED
notes: Intracellular endogenous protein, detected with antibodies in the proximity ligation assay
For B1, in assay [1], the binding result is “no binding”.

B2: PSD, endogenous, in A549 cells (enzyme)
chain: MMCQSEARQGPELRAAKWLHFPQLALRRRLGQLSCMSRPALKLRSWPLTVLYYLLPLGALRPLSRVGWRPVSRVALYKSVPTRLLSRAWGRLNQVELPHWLRRPVYSLYIWTFGVNMKEAAVEDLHHYRNLSEFFRRKLKPQARPVCGLHSVISPSDGRILNFGQVKNCEVEQVKGVTYSLESFLGPRTCTEDLPFPPAASCDSFKNQLVTREGNELYHCVIYLAPGDYHCFHSPTDWTVSHRRHFPGSLMSVNPGMARWIKELFCHNERVVLTGDWKHGFFSLTAVGATNVGSIRIYFDRDLHTNSPRHSKGSYNDFSVVGSLTR
notes: Intracellular endogenous protein, detected with antibodies in the proximity ligation assay; also called phosphatidylserine decarboxylase
Regarding B2, the binding result in assay [2] was “no binding”.
